The values that follow come from US9119839B2, “Cancer treatment” (Pfizer Inc., priority 2009, dated 2015).

Assay [1] deals with previously-untreated, unresectable melanoma. Nature of the assay: Clinical trial A3671009, randomized multicenter Phase 3 study of tremelimumab versus chemotherapy: overall survival by baseline serum CRP category. It counts as in vivo, human. To be noted: for Median OS: tremelimumab 15 mg/kg i.v. every 90 days (Arm A) or dacarbazine/temozolomide (Arm B); for HR (hazard ratio for survival for the two treatment arms): CTLA4 blockade versus chemotherapy. As for the experimental part: Patients randomized to Arm A received intravenous tremelimumab at a dose of 15 mg/kg every 90 days for up to four doses. Patients randomized to Arm B received either dacarbazine at 1000 mg/m^2 or temozolomide at 200 mg/m^2 at the discretion of the investigator. The primary objective of the trial was to compare overall survival of patients in the two treatment arms. Objective tumor response was a secondary endpoint. In the A3671009 trial, serum CRP was measured in most patients before initiation of treatment. In the analysis described below, baseline CRP refers to the result of a CRP assay performed on serum drawn from patients up to 14 days prior randomization into the study. […] The hazard ratio of 1.48 represents a 48% improvement in overall survival in favor of patients who received CTLA4 blockade.

The next assay has as its system CRP. To be noted: treatment with IL-6 / IL-6 receptor inhibitor; cited from earlier work.
[2] abbreviates: patients with baseline CRP > 1.5 ULN.
The mark [3] stands for this setting: patients with baseline CRP ≦ 1.5 ULN.

With “dacarbazine or temozolomide [Chemotherapy, reference compound]”, the figures for the “Median OS” value in assay [1] (setting [2]) and in assay [1] (setting [3]) were 6.1 months and 12.7 months, respectively.
For tocilizumab, the “effect on CRP levels” value in the assay with CRP is reported as “reduce CRP levels”.

B1: tremelimumab (antibody, listed as Homo sapiens)
VH: GVVQPGRSLRLSCAASGFTFSSYGMHWVRQAPGKGLEWVAVIWYDGSNKYYADSVKGRFTISRDNSKNTLYLQMNSLRAEDTAVYYCARDPRGATLYYYYYGMDVWGQGTTVTVSSASTKGPSVFPLAPCSRSTSESTAALGCLVKDYFPEPVTVSWNSGALTSGVH
VL: PSSLSASVGDRVTITCRASQSINSYLDWYQQKPGKAPKLLIYAASSLQSGVPSRFSGSGSGTDFTLTISSLQPEDFATYYCQQYYSTPFTFGPGTKVEIKRTVAAPSVFIFPPSDEQLKSGTASVVCLLNNFYPREAKV
notes: anti-CTLA4 monoclonal IgG2 antibody 11.2.1; Arm A of trial A3671009
With B1, the “HR (hazard ratio for survival for the two treatment arms)” value in assay [1] (baseline CRP > 1.5 ULN, P-value 0.3076) amounted to 0.86; in assay [1] (baseline CRP ≦ 1.5 ULN, P-value 0.0037), 1.48. Also, in assay [1] (low baseline CRP, in favor of CTLA4 blockade versus chemotherapy), the “improvement in overall survival” value worked out at 48%. The “Median OS” value in assay [1] (setting [2]) is listed as 6.1 months; in assay [1] (setting [3]), 19.1 months. Besides, the “difference in overall survival between treatment groups” value in assay [1] (patients with high baseline CRP, versus chemotherapy (FIG. 2)) is “no apparent difference”; in assay [1] (patients with low baseline CRP, versus chemotherapy (FIG. 1)), “clinically meaningful and statistically significant difference”.
